Patent EP4745153A1, “GLP-1, GIP AND GCG RECEPTOR […] USE THEREOF” (Jiangsu Hengrui Pharmaceuticals Co., Ltd., priority 2023, dated 2025)
Like-named read-outs stand apart in the source and are kept apart here. Starred links: 1 amine or outer side, 2 acyl side, 3 side chain; linkers in the order of their positions; H or OH if unused. Non-standard residues stand in square brackets, D forms with d. Groups on a side chain read outwards from the residue. No end group written: not given here. *: point of attachment. C20 diacid = O=C(O)CCCCCCCCCCCCCCCCCCC(=O)*; γGlu = O=C(O)[C@H](CCC(=O)[*:2])N[*:1]; αMeL = CC(C)C[C@](C)(N)C(=O)O; αMeK = C[C@](N)(CCCCN)C(=O)O; αMeS = C[C@](N)(CO)C(=O)O; AEEA = NCCOCCOCC(=O)O; Aib = CC(C)(N)C(=O)O

Columns and labels:
human glucagon receptor [1] = biological target: T1, human glucagon receptor (human, UniProt P47871 26-477); experiment: cell-based or functional assay
[2] = biological target: T2, human glucagon-like peptide-1 receptor (human, UniProt P43220 24-463); experiment: cell-based or functional assay
Target sequence in this assay (P43220 24-463): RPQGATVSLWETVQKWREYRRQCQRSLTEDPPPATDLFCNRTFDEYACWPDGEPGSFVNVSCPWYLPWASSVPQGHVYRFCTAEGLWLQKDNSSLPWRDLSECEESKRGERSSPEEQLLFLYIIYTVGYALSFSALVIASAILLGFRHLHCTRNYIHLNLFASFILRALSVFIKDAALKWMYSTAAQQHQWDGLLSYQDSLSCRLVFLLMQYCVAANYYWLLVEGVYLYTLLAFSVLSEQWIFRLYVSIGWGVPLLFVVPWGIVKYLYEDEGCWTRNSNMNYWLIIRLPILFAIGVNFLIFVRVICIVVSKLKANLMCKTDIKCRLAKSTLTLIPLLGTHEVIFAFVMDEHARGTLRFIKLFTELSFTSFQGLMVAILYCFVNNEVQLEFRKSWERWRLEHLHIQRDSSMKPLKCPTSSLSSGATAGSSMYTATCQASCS

[3] = biological target: human glucose-dependent insulinotropic polypeptide receptor (human) (UniProt P48546); experiment: cell-based or functional assay
[4] = Physical stability of solution in the vehicle; format: physicochemical; conditions: incubation at 25 degrees Celsius for 28 days; stated in the description, no method given
[5] = biological target: T3, human glucose-dependent insulinotropic polypeptide receptor (human, UniProt P48546 22-466); experiment: cell-based or functional assay
T3 sequence (looked up): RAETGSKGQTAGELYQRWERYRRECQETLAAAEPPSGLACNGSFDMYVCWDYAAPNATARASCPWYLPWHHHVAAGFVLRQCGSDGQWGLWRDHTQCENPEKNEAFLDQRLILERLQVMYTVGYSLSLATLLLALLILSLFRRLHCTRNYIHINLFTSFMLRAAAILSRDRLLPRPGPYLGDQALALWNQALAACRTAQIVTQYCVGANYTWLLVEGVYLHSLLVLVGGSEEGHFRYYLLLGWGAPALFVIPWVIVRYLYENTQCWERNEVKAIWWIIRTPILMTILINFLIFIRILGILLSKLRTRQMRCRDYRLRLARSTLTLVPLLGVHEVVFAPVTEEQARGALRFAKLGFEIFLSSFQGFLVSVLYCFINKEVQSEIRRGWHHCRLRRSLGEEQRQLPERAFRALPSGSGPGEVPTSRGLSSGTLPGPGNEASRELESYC

human glucagon receptor [6] = biological target: T1, human glucagon receptor; experiment: cell-based or functional assay; remark: listed apart in the source
[7] = biological target: T2, human glucagon-like peptide-1 receptor; experiment: cell-based or functional assay; remark: listed apart in the source

T1 sequence (P47871 26-477): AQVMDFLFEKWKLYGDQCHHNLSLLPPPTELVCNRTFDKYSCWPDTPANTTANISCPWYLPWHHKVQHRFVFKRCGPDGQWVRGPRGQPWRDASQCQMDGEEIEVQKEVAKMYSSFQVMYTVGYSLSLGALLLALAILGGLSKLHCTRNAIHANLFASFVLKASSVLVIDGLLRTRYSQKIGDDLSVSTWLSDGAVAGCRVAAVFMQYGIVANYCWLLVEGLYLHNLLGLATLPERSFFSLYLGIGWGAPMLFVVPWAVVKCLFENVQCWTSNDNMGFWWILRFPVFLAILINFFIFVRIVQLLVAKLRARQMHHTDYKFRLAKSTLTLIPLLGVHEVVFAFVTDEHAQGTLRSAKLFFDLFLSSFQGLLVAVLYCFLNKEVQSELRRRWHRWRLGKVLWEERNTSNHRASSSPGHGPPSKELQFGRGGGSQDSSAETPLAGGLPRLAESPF

With LY3437943 (peptide) the Activity against human GCGR (EC50 nM) (human glucagon receptor [1]) was 0.412 nM, the Activity against human GLP-1R (EC50 nM) [2] was 0.08 nM and the Activity against human GIPR (EC50 nM) [3] was 0.002 nM.

With “H-Aib-HGTFTSDYSI-αL-LE-K(-OEG-OEG-γGlu-C(O)-(CH2)18-COOH)-KAAQEFVEWLLAGGPSSGAPPPS-NH2 (H[Aib]HGTFTSDYSI[αMeL]LEK([AEEA-AEEA-γGlu-C20 diacid])KAAQEFVEWLLAGGPSSGAPPPS-NH2; N-terminus assumed; SMILES CC[C@H](C)[C@H](NC(=O)[C@H](CO)NC(=O)[C@H](Cc1ccc(O)cc1)NC(=O)[C@H](CC(=O)O)NC(=O)[C@H](CO)NC(=O)[C@@H](NC(=O)[C@H](Cc1ccccc1)NC(=O)[C@@H](NC(=O)CNC(=O)[C@H](Cc1c[nH]cn1)NC(=O)C(C)(C)NC(=O)[C@@H](N)Cc1c[nH]cn1)[C@@H](C)O)[C@@H](C)O)C(=O)N[C@@](C)(CC(C)C)C(=O)N[C@@H](CC(C)C)C(=O)N[C@@H](CCC(=O)O)C(=O)N[C@@H](CCCCNC(=O)COCCOCCNC(=O)COCCOCCNC(=O)CC[C@H](NC(=O)CCCCCCCCCCCCCCCCCCC(=O)O)C(=O)O)C(=O)N[C@@H](CCCCN)C(=O)N[C@@H](C)C(=O)N[C@@H](C)C(=O)N[C@@H](CCC(N)=O)C(=O)N[C@@H](CCC(=O)O)C(=O)N[C@@H](Cc1ccccc1)C(=O)N[C@H](C(=O)N[C@@H](CCC(=O)O)C(=O)N[C@@H](Cc1c[nH]c2ccccc12)C(=O)N[C@@H](CC(C)C)C(=O)N[C@@H](CC(C)C)C(=O)N[C@@H](C)C(=O)NCC(=O)NCC(=O)N1CCC[C@H]1C(=O)N[C@@H](CO)C(=O)N[C@@H](CO)C(=O)NCC(=O)N[C@@H](C)C(=O)N1CCC[C@H]1C(=O)N1CCC[C@H]1C(=O)N1CCC[C@H]1C(=O)N[C@@H](CO)C(N)=O)C(C)C) [Compound 0125]” the “appearance of the solution in the vehicle” value [4] was “remains clear and transparent”.

B1: Compound No. 0126 (peptide)
peptide: H[Aib]HGTFTSDYS[αMeK]LLEK([AEEA-AEEA-γGlu-C20 diacid])KAA[αMeS]EFVEWLIEGGPSSGAPPPS-NH2
modifications: N-terminus assumed
SMILES: CC[C@H](C)[C@H](NC(=O)[C@H](CC(C)C)NC(=O)[C@H](Cc1c[nH]c2ccccc12)NC(=O)[C@H](CCC(=O)O)NC(=O)[C@@H](NC(=O)[C@H](Cc1ccccc1)NC(=O)[C@H](CCC(=O)O)NC(=O)[C@](C)(CO)NC(=O)[C@H](C)NC(=O)[C@H](C)NC(=O)[C@H](CCCCN)NC(=O)[C@H](CCCCNC(=O)COCCOCCNC(=O)COCCOCCNC(=O)CC[C@H](NC(=O)CCCCCCCCCCCCCCCCCCC(=O)O)C(=O)O)NC(=O)[C@H](CCC(=O)O)NC(=O)[C@H](CC(C)C)NC(=O)[C@H](CC(C)C)NC(=O)[C@](C)(CCCCN)NC(=O)[C@H](CO)NC(=O)[C@H](Cc1ccc(O)cc1)NC(=O)[C@H](CC(=O)O)NC(=O)[C@H](CO)NC(=O)[C@@H](NC(=O)[C@H](Cc1ccccc1)NC(=O)[C@@H](NC(=O)CNC(=O)[C@H](Cc1c[nH]cn1)NC(=O)C(C)(C)NC(=O)[C@@H](N)Cc1c[nH]cn1)[C@@H](C)O)[C@@H](C)O)C(C)C)C(=O)N[C@@H](CCC(=O)O)C(=O)NCC(=O)NCC(=O)N1CCC[C@H]1C(=O)N[C@@H](CO)C(=O)N[C@@H](CO)C(=O)NCC(=O)N[C@@H](C)C(=O)N1CCC[C@H]1C(=O)N1CCC[C@H]1C(=O)N1CCC[C@H]1C(=O)N[C@@H](CO)C(N)=O
With B1 the “Activity against human GIPR (EC50 nM)” value [5] was 0.002 nM, the “Activity against human GCGR (EC50 nM)” value (human glucagon receptor [6]) was 0.008 nM and the “Activity against human GLP-1R (EC50 nM)” value [7] was 0.008 nM.
